These results are taken from PMC7547225 (Proceedings of the National Academy of Sciences of the …, 2020).

Series [1] concerns the molecule itself.
The series “AUC” deals with the molecule itself. Description: AUC.

As usually defined, the stoichiometry N is a count of units in the complex or per binding partner. For orientation: Kd means the concentration at which binding is half-saturated. Read a low Kd as a tighter complex.

B1: hs PCDH15 EC1-3 G16D/N369D/Q370N (domain or fragment)
chain: not shown
In the case of B1, in series [1], the “stoichiometry N” value was found to be 2.

B2: hs PCDH15 EC2-3 WT (domain or fragment)
chain: NSPTFKHESYYATVNELTPVGTTIFTGFSGDNGATDIDDGPNGQIEYVIQYNPDDPTSNDTFEIPLMLTGNIVLRKRLNYEDKTRYFVIIQANDRAQNLNERRTTTTTLTVDVLDGDDLGPMFLPCVLVPNTRDCRPLTYQAAIPELRTPEELNPIIVTPPIQAIDQDRNIQPPSDRPGILYSILVGTPEDYPRFFHMHPRTAELSLLEPVNRDFHQKFDLVIKAEQDNGHPLPAFAGLHIEILDENN
In “AUC”, B2 gave a Kd of less than 1000 nM.
